Data: US20250249115A1, “COMBINATION THERAPY FOR TREATING TUMOR ANTIGEN EXPRESSING CANCERS” (Gilead Sciences, Inc., priority 2022, published 2025)

Tests used:
Human Trop-2 = target: T1, Human Trop-2 (Homo sapiens, UniProt P09758); experiment: Binding to human Trop-2 measured by surface plasmon resonance (SPR)
T1 sequence (P09758 27-323): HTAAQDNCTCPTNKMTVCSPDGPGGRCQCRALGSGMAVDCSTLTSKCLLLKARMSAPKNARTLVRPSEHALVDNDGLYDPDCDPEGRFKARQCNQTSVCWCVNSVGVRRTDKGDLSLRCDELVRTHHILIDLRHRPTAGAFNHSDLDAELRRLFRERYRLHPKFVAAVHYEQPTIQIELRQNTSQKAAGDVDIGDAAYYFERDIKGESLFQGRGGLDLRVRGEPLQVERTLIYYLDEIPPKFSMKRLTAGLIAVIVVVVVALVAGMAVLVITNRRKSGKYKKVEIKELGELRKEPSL
Text: (§1) To engineer an anti-mouse Trop-2 ADC binding to mouse Trop-2 with proprieties similar to SG, we selected a commercially available anti-mouse Trop-2 rabbit antibody (Sino Biological, #50922-R064) and murinized it to obtain an anti-mouse Trop-2 IgG2a (Rab64/mG2a/mKap). Rab64 mAb was then coupled to CL2A linker/SN-38 payload at a high DAR (˜8-9).

Mouse Trop-2 = target: T2, Mouse Trop-2 (Mus musculus, UniProt Q8BGV3); experiment: Binding to mouse Trop-2 measured by surface plasmon resonance (SPR)
T2 sequence (Q8BGV3 25-317): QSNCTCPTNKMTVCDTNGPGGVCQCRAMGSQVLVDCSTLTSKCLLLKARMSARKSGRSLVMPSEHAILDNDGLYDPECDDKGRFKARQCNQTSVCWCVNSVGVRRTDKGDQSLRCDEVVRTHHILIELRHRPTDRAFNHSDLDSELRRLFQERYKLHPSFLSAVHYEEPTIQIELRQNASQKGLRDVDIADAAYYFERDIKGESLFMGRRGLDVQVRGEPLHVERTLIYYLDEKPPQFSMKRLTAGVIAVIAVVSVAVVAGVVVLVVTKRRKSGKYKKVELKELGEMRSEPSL
Text: as §1

Human Trop-2 (human) = Human Trop-2 (human) (UniProt P09758); experiment: SPR

Q: For “hRS7-hIgG1k: humanized monoclonal antibody hRS7 IgG1κ, which binds to Trop-2”, which Kd (Human Trop-2) is on record?
A: 0.328 nM

Q: What about the KD (Mouse Trop-2) of the same molecule?
A: No binding detected

B1: hRS7-hIgG1k (antibody, INN chains, looked up, V domains shown)
VH: QVQLQQSGSELKKPGASVKVSCKASGYTFTNYGMNWVKQAPGQGLKWMGWINTYTGEPTYTDDFKGRFAFSLDTSVSTAYLQISSLKADDTAVYFCARGGFGSSYWYFDVWGQGSLVTVSS
VL: DIQLTQSPSSLSASVGDRVSITCKASQDVSIAVAWYQQKPGKAPKLLIYSASYRYTGVPDRFSGSGSGTDFTLTISSLQPEDFAVYYCQQHYITPLTFGAGTKVEIKR
Q: For B1, which Kd (Human Trop-2 (human)) is on record?
A: 0.328 nM

Q: What about the koff (Human Trop-2 (human)) of the same molecule?
A: 0.000144 s⁻¹

Q: What about the kon (Human Trop-2 (human)) of the same molecule?
A: 440000 M⁻¹ s⁻¹

B2: Sacituzumab Govitecan (SG, Trodelvy) (antibody, INN chains, looked up, IgG1, V domains shown)
VH: QVQLQQSGSELKKPGASVKVSCKASGYTFTNYGMNWVKQAPGQGLKWMGWINTYTGEPTYTDDFKGRFAFSLDTSVSTAYLQISSLKADDTAVYFCARGGFGSSYWYFDVWGQGSLVTVSS
VL: DIQLTQSPSSLSASVGDRVSITCKASQDVSIAVAWYQQKPGKAPKLLIYSASYRYTGVPDRFSGSGSGTDFTLTISSLQPEDFAVYYCQQHYITPLTFGAGTKVEIKR
modifications: CL2A-SN-38, DAR 7.5
Q: With B2 as the molecule, how does the Kd (Human Trop-2 (human)) read?
A: 0.361 nM

Q: What about the koff (Human Trop-2 (human)) of the same molecule?
A: 0.000153 s⁻¹

Q: What about the kon (Human Trop-2 (human)) of the same molecule?
A: 423000 M⁻¹ s⁻¹
